This is an account of results in US20260201008A1, “SECRETIN-DERIVED GLP1R SELECTIVE AGONISTS” (GUBRA A/S, priority 2023, published 2026).

Read-outs that look alike come from different tables or passages of the source. Numbered stars: 1 amine (or outer) side, 2 acyl side, 3 side chain; on linkers, the order of the positions; unused ones are H or OH. Square brackets hold non-standard residues; d marks the D form. Side chains are listed from the residue outwards. Ends that are not written are not given here. * marks the point of attachment. C20 diacid = O=C(O)CCCCCCCCCCCCCCCCCCC(=O)*; C18 diacid = O=C(O)CCCCCCCCCCCCCCCCC(=O)*; γGlu = O=C(O)[C@H](CCC(=O)[*:2])N[*:1]; AEEA = NCCOCCOCC(=O)O; Aib = CC(C)(N)C(=O)O

Holding throughout (assay): cell-based or functional assay
In experiment [1] the target is T1, human GLP-1 receptor (hGLP1R) (human, UniProt P43220 24-463).
The target of experiment [2] is T2, human secretin receptor (hSCTR) (human, UniProt P47872 23-440).
T2 sequence (P47872 23-440): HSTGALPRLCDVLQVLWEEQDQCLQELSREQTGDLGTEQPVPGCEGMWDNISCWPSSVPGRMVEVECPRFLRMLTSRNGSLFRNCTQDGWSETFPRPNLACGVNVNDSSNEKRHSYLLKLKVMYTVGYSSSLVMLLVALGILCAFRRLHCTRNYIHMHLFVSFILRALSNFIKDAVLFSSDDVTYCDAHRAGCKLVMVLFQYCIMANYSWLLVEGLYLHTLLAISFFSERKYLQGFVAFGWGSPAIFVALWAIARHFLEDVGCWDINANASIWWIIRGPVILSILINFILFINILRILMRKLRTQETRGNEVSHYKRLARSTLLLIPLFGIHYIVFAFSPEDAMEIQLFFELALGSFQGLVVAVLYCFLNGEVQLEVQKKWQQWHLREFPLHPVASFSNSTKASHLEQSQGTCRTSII
For experiment [3], the target named is T1, human GLP-1 receptor (hGLP1R). The source holds these as a separate data set.
In experiment [4] the target is T2, human secretin receptor (hSCTR). The source holds these as a separate data set.
The target in experiment [5] is T1, human GLP-1 receptor (hGLP1R). The source holds these as a separate data set.
The target in experiment [6] is T2, human secretin receptor (hSCTR). The source holds these as a separate data set.
Experiment [7] addresses T1, human GLP-1 receptor (hGLP1R). This is another data set of the same source.
In experiment [8] the target is T2, human secretin receptor (hSCTR). The source holds these as a separate data set.

Turning to H[Aib]EGTFTSDVSRLK([AEEA-AEEA-γGlu-C18 diacid])EGAAEQRFLQHLVAAE-NH2 [SEQ ID NO: 206], the “PEC50 hGLPR1” value in experiment [1] was 10.8 -log M. Moreover, the “pEC50 hSCTR” value in experiment [2] is 5.3 -log M.

B1: SEQ ID NO: 213 (peptide)
peptide: H[Aib]EGTFTSDVSYLLEEA[Aib]LQRFLEK([AEEA-AEEA-γGlu-C20 diacid])LVEAA-NH2
modifications: N-terminus assumed
SMILES: CC(C)C[C@H](NC(=O)[C@H](CC(C)C)NC(=O)[C@H](Cc1ccc(O)cc1)NC(=O)[C@H](CO)NC(=O)[C@@H](NC(=O)[C@H](CC(=O)O)NC(=O)[C@H](CO)NC(=O)[C@@H](NC(=O)[C@H](Cc1ccccc1)NC(=O)[C@@H](NC(=O)CNC(=O)[C@H](CCC(=O)O)NC(=O)C(C)(C)NC(=O)[C@@H](N)Cc1c[nH]cn1)[C@@H](C)O)[C@@H](C)O)C(C)C)C(=O)N[C@@H](CCC(=O)O)C(=O)N[C@@H](CCC(=O)O)C(=O)N[C@@H](C)C(=O)NC(C)(C)C(=O)N[C@@H](CC(C)C)C(=O)N[C@@H](CCC(N)=O)C(=O)N[C@@H](CCCNC(=N)N)C(=O)N[C@@H](Cc1ccccc1)C(=O)N[C@@H](CC(C)C)C(=O)N[C@@H](CCC(=O)O)C(=O)N[C@@H](CCCCNC(=O)COCCOCCNC(=O)COCCOCCNC(=O)CC[C@H](NC(=O)CCCCCCCCCCCCCCCCCCC(=O)O)C(=O)O)C(=O)N[C@@H](CC(C)C)C(=O)N[C@H](C(=O)N[C@@H](CCC(=O)O)C(=O)N[C@@H](C)C(=O)N[C@@H](C)C(N)=O)C(C)C
B1: the “PEC50 hGLPR1” value in experiment [1] is 10.8 -log M. For the same molecule, the “pEC50 hSCTR” value in experiment [2] was 6 -log M. In experiment [3], the “hGLPR1 EC50 nM (purified peptide)” value was determined as 0.014 nM and the “hGLPR1 PEC50 (purified peptide)” value is 10.9 -log M. For the same molecule, in experiment [4], the “hSCTR EC50 nM (purified peptide)” value was 890 nM and the “hSCTR pEC50 (purified peptide)” value is 6.1 -log M.

B2: SEQ ID NO: 209 (peptide)
peptide: H[Aib]EGTFTSDVSYLK([AEEA-AEEA-γGlu-C20 diacid])EEA[Aib]LQRFLEHLVEAA-NH2
modifications: N-terminus assumed
SMILES: CC(C)C[C@H](NC(=O)[C@H](Cc1ccccc1)NC(=O)[C@H](CCCNC(=N)N)NC(=O)[C@H](CCC(N)=O)NC(=O)[C@H](CC(C)C)NC(=O)C(C)(C)NC(=O)[C@H](C)NC(=O)[C@H](CCC(=O)O)NC(=O)[C@H](CCC(=O)O)NC(=O)[C@H](CCCCNC(=O)COCCOCCNC(=O)COCCOCCNC(=O)CC[C@H](NC(=O)CCCCCCCCCCCCCCCCCCC(=O)O)C(=O)O)NC(=O)[C@H](CC(C)C)NC(=O)[C@H](Cc1ccc(O)cc1)NC(=O)[C@H](CO)NC(=O)[C@@H](NC(=O)[C@H](CC(=O)O)NC(=O)[C@H](CO)NC(=O)[C@@H](NC(=O)[C@H](Cc1ccccc1)NC(=O)[C@@H](NC(=O)CNC(=O)[C@H](CCC(=O)O)NC(=O)C(C)(C)NC(=O)[C@@H](N)Cc1c[nH]cn1)[C@@H](C)O)[C@@H](C)O)C(C)C)C(=O)N[C@@H](CCC(=O)O)C(=O)N[C@@H](Cc1c[nH]cn1)C(=O)N[C@@H](CC(C)C)C(=O)N[C@H](C(=O)N[C@@H](CCC(=O)O)C(=O)N[C@@H](C)C(=O)N[C@@H](C)C(N)=O)C(C)C
For B2, the “PEC50 hGLPR1” value in experiment [1] was 10.9 -log M. Moreover, in experiment [2], the “pEC50 hSCTR” value was 6.4 -log M. Besides, in experiment [3], the “hGLPR1 EC50 nM (purified peptide)” value was 0.0098 nM and the “hGLPR1 PEC50 (purified peptide)” value is 11 -log M. In experiment [4], the “hSCTR EC50 nM (purified peptide)” value came to 330 nM and the “hSCTR pEC50 (purified peptide)” value is 6.5 -log M.
With H[Aib]EGTFTSDVSELLEEA[Aib]LQRFLEK([AEEA-AEEA-γGlu-C20 diacid])LVEAA-NH2 [SEQ ID NO: 214], in experiment [1], the “PEC50 hGLPR1” value is 10.9 -log M. Besides, the “pEC50 hSCTR” value in experiment [2] was 6.1 -log M.
For the molecule H[Aib]EGTFTSDVSTLK([AEEA-AEEA-γGlu-C20 diacid])EEA[Aib]LQRFLEHLVEAA-NH2 [SEQ ID NO: 211], the “PEC50 hGLPR1” value in experiment [1] was 11.2 -log M. Besides, the “pEC50 hSCTR” value in experiment [2] was 7.1 -log M.

B3: SEQ ID NO: 223 (peptide)
peptide: H[Aib]EGTFTSDLS[Aib]LLEGAALQRFIQWLV-NH2
modifications: N-terminus assumed
SMILES: CC[C@H](C)[C@H](NC(=O)[C@H](Cc1ccccc1)NC(=O)[C@H](CCCNC(=N)N)NC(=O)[C@H](CCC(N)=O)NC(=O)[C@H](CC(C)C)NC(=O)[C@H](C)NC(=O)[C@H](C)NC(=O)CNC(=O)[C@H](CCC(=O)O)NC(=O)[C@H](CC(C)C)NC(=O)[C@H](CC(C)C)NC(=O)C(C)(C)NC(=O)[C@H](CO)NC(=O)[C@H](CC(C)C)NC(=O)[C@H](CC(=O)O)NC(=O)[C@H](CO)NC(=O)[C@@H](NC(=O)[C@H](Cc1ccccc1)NC(=O)[C@@H](NC(=O)CNC(=O)[C@H](CCC(=O)O)NC(=O)C(C)(C)NC(=O)[C@@H](N)Cc1c[nH]cn1)[C@@H](C)O)[C@@H](C)O)C(=O)N[C@@H](CCC(N)=O)C(=O)N[C@@H](Cc1c[nH]c2ccccc12)C(=O)N[C@@H](CC(C)C)C(=O)N[C@H](C(N)=O)C(C)C
With B3, the “pEC50 hGLPR1” value in experiment [5] is 10.2 -log M. Also, the “pEC50 hSCTR” value in experiment [6] is 8.3 -log M.
With H[Aib]EGTFTSDVSYLK([AEEA-AEEA-γGlu-C20 diacid])EEA[Aib]LQRFLEHLV-NH2 (also: table footnote: C20DA or C18DA) [SEQ ID NO: 203], the “pEC50 hGLPR1” value in experiment [7] is 10.7 -log M. Also, the “pEC50 hSCTR” value in experiment [8] was 6.7 -log M. In experiment [3], the “hGLPR1 EC50 nM (purified peptide)” value was 0.017 nM and the “hGLPR1 PEC50 (purified peptide)” value is 10.8 -log M. In addition, in experiment [4], the “hSCTR EC50 nM (purified peptide)” value stood at 190 nM and the “hSCTR pEC50 (purified peptide)” value is 6.7 -log M.
Regarding H[Aib]EGTFTSDVSVLK([AEEA-AEEA-γGlu-C20 diacid])E[Aib]AATQRFLEHLV-NH2 [SEQ ID NO: 49], the “pEC50 hGLPR1” value in experiment [7] was 10.7 -log M. Also, the “pEC50 hSCTR” value in experiment [8] was 6.9 -log M.
As to H[Aib]EGTFTSDVSRLK([AEEA-AEEA-γGlu-C20 diacid])EEAALQRFLEHLVEAA-NH2 [SEQ ID NO: 207], the “PEC50 hGLPR1” value in experiment [1] was 11 -log M. Besides, in experiment [2], the “pEC50 hSCTR” value is 8.2 -log M.
In the case of H[Aib]EGTFTSDVSRLK([AEEA-AEEA-γGlu-C20 diacid])EEA[Aib]AQRFLEHLVEAA-NH2 [SEQ ID NO: 215], in experiment [1], the “PEC50 hGLPR1” value was 11 -log M. Moreover, the “pEC50 hSCTR” value in experiment [2] is 6.3 -log M.
As for H[Aib]EGTFTSDVSRLK([AEEA-AEEA-γGlu-C18 diacid])EGAAEQRFLQHLVEAA-NH2 [SEQ ID NO: 205], the “PEC50 hGLPR1” value in experiment [1] was 11.1 -log M. In addition, the “pEC50 hSCTR” value in experiment [2] is 5.3 -log M.
For the molecule H[Aib]EGTFTSDVSYLK([AEEA-AEEA-γGlu-C20 diacid])E[Aib]AATQRFLEHLV-NH2 [SEQ ID NO: 48], the “pEC50 hGLPR1” value in experiment [7] was 10.6 -log M. Also, the “pEC50 hSCTR” value in experiment [8] is 6.9 -log M.
As to H[Aib]EGTFTSDVSRLK([AEEA-AEEA-γGlu-C20 diacid])EEA[Aib]LQRFLEHLVEAA-NH2 [SEQ ID NO: 208], the “PEC50 hGLPR1” value in experiment [1] is 10.6 -log M. In experiment [2], the “pEC50 hSCTR” value was 7.6 -log M. Besides, in experiment [3], the “hGLPR1 EC50 nM (purified peptide)” value came out at 0.022 nM and the “hGLPR1 PEC50 (purified peptide)” value is 10.6 -log M. Also, in experiment [4], the “hSCTR EC50 nM (purified peptide)” value came out at 24 nM and the “hSCTR pEC50 (purified peptide)” value was 7.6 -log M.
For the molecule H[Aib]EGTFTSDVSELK([AEEA-AEEA-γGlu-C20 diacid])EEA[Aib]LQRFLEHLV-NH2 [SEQ ID NO: 168], the “pEC50 hGLPR1” value in experiment [7] is 11.2 -log M. Further, the “pEC50 hSCTR” value in experiment [8] is 7.3 -log M. Besides, in experiment [3], the “hGLPR1 EC50 nM (purified peptide)” value came to 0.012 nM and the “hGLPR1 PEC50 (purified peptide)” value is 10.9 -log M. In experiment [4], the “hSCTR EC50 nM (purified peptide)” value came out at 100 nM and the “hSCTR pEC50 (purified peptide)” value was 7 -log M.
As for H[Aib]EGTFTSDVSRLLEEA[Aib]LQRFLEK([AEEA-AEEA-γGlu-C20 diacid])LVEAA-NH2 [SEQ ID NO: 212], the “PEC50 hGLPR1” value in experiment [1] is 10.7 -log M. Moreover, the “pEC50 hSCTR” value in experiment [2] is 7.2 -log M. In experiment [3], the “hGLPR1 EC50 nM (purified peptide)” value was determined as 0.021 nM and the “hGLPR1 PEC50 (purified peptide)” value was 10.7 -log M. In experiment [4], the “hSCTR EC50 nM (purified peptide)” value was 60 nM and the “hSCTR pEC50 (purified peptide)” value is 7.2 -log M.
For H[Aib]EGTFTSDVSRLK([AEEA-AEEA-γGlu-C18 diacid])EGAAEQRFLQHLVEAE-NH2 [SEQ ID NO: 204], in experiment [1], the “PEC50 hGLPR1” value was 11 -log M. Besides, the “pEC50 hSCTR” value in experiment [2] was 5.6 -log M.
Turning to H[Aib]EGTFTSDVSELK([AEEA-AEEA-γGlu-C20 diacid])EEA[Aib]LQRFLEHLVEAA-NH2 [SEQ ID NO: 210], the “PEC50 hGLPR1” value in experiment [1] was 11 -log M. The “pEC50 hSCTR” value in experiment [2] is 6.8 -log M. Also, in experiment [3], the “hGLPR1 EC50 nM (purified peptide)” value amounted to 0.0095 nM and the “hGLPR1 PEC50 (purified peptide)” value is 11 -log M. Besides, in experiment [4], the “hSCTR EC50 nM (purified peptide)” value was 190 nM and the “hSCTR pEC50 (purified peptide)” value is 6.7 -log M.
